Measurements published in the supplement of paper PMC10201428.
± gives the standard deviation of the averaged measurements.

B1: library; a variant is named by its letters at N, in order (parent)
chain: ACATTTGTTGATACAACCATAAAATGATAATTACACCCATAAATTGATAATTATCACACCCANNNNNNNNNNNNNNCTCTGATCATAGTCAGACCAACATTGCTACGACCCGTATTCGCACCGACAC

What was measured:
[1] = variants of: B1; assay: relative integration efficiency (T-RL orientation) vs wild-type transposon end (log2 (normalized fold change)); transposon end mutated: right end (5 bp flank + 75 bp right end); higher = more efficient transposition; settings: with VchCAST RNA-guided transposition machinery (E. coli BL21(DE3) host, lacZ target)
Experimental: (§1)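 Pooled, barcoded VchCAST (Tn6677) mini-transposon donor libraries; each variable transposon-end sequence sits in a fixed pDonor mini-transposon context (10-bp barcode and cargo not included). Left- or right-end libraries were co-transformed with pEffector (TniQ-Cascade, TnsABC, lacZ crRNA, T7, 0.1 mM IPTG) into E. coli BL21(DE3) and grown 18 h at 37 C. T-LR and T-RL junction amplicons were sequenced; output/input barcode fold change was normalised to the mean of four wild-type barcodes and log2-transformed. Two biological replicates; zero-count/undetected variants carry floor values (-10 / -15), censored here. Barcode uncoupling by PCR recombination adds noise.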

[2] = variants of: B1; assay: relative integration efficiency (T-LR orientation) vs wild-type transposon end (log2 (normalized fold change)); transposon end mutated: right end (5 bp flank + 75 bp right end); higher = more efficient transposition; settings: with VchCAST RNA-guided transposition machinery (E. coli BL21(DE3) host, lacZ target)
Experimental: as §1

Variant | relative integration efficiency (log2) [1] | relative integration efficiency (log2) [2]
ATTTTTGATATTGC | -0.244 ± 0.095 | 1.64 ± 0.1
ATTTAACTATAACG T8G | -6.07 ± 0.37 | -5.36 ± 1.4
ATTTAACTATAACG T8A | -1.56 ± 0.29 | 0.918 ± 0.079
ATTTAACTATAACG T8C | -1.8 ± 0.42 | -0.0325 ± 0.43
ATTTAACTATAACG A53G | -1.38 ± 0.34 | 2.239 ± 0.0053
ATTTAACTATAACG A53C | -1.32 ± 0.33 | 2.49 ± 0.26
TCAATTGATATTGC | 0.124 ± 0.1 | 2.16 ± 0.12
ATTTAACTATAACG A11T | -0.284 ± 0.19 | 2.19 ± 0.049
ATTTAACTATAACG A11G | -0.569 ± 0.088 | 1.83 ± 0.095
ATTTAACTATAACG A11C | -0.753 ± 0.07 | 1.51 ± 0.15
GCAATTGATATTGC | -0.508 ± 0.047 | 2.25 ± 0.12
ATTTAACTATAACG A13T | -1.09 ± 0.14 | 1.84 ± 0.15
ATTTAACTATAACG A13C | -0.7 ± 0.17 | 2.25 ± 0.23
TAAATTGTATATGC | -0.247 ± 0.1 | 0.948 ± 0.27
TACCGGGATATTGC | -0.561 ± 0.028 | 2.282 ± 0.0082
ATTTAACTATAACG T44C | -0.948 ± 0.24 | 2.28 ± 0.14
ATTTAACTATAACG T44A | -0.682 ± 0.22 | 2.32 ± 0.13
ATTTAACTATAACG T44G | -0.646 ± 0.027 | 2.17 ± 0.033
ATTTAACTATAACG C36A | -0.593 ± 0.052 | 2.4 ± 0.13
ATTTAACTATAACG C36G | -1.16 ± 0.22 | 1.95 ± 0.11
TAAATTGATATTGC T40G | -0.896 ± 0.09 | -1.24 ± 0.71
TAAATTGATATTGC T40A | -0.0544 ± 0.14 | -0.355 ± 0.17
TAAATTGATATTGC T40C | -0.609 ± 0.017 | -0.859 ± 0.091
ATTTAACTATAACG A19G | -0.904 ± 0.018 | 2.08 ± 0.037

Variant | relative integration efficiency (log2) [1] | relative integration efficiency (log2) [2]
ATTTAACTATAACG A19T | -1.53 ± 0.24 | 2.1 ± 0.09
ATTTAACTATAACG A19C | -1.84 ± 0.3 | 1.06 ± 0.42
ATTTAACTATAACG G10C | -1.15 ± 0.31 | 0.7 ± 0.19
ATTTAACTATAACG G10T | -1.54 ± 0.43 | 0.15 ± 0.026
ATTTAACTATAACG G10A | -0.62 ± 0.18 | 1.89 ± 0.087
ATTTAACTATAACG T54A | -1.14 ± 0.19 | 2.49 ± 0.12
ATTTAACTATAACG T54C | -1.04 ± 0.22 | 2.37 ± 0.24
ATTTAACTATAACG T54G | -1.12 ± 0.37 | 2.49 ± 0.13
ATTTAACTATAACG C18A | -0.906 ± 0.082 | 2.01 ± 0.13
ATTTAACTATAACG C18T | -0.685 ± 0.013 | 2.16 ± 0.14
ATTTAACTATAACG C18G | -1.04 ± 0.083 | 1.98 ± 0.099
TAATAACATATTGC | -0.969 ± 0.16 | 2.203 ± 0.0027
ATTTAACTATAACG T6A | -6.98 ± 0.9 | -4.12 ± 0.43
ATTTAACTATAACG T6G | -6.3 ± 0.14 | -5.38 ± 0.28
TAAATTGATCGTGC | -0.217 ± 0.047 | 0.973 ± 0.038
TAAATTGATATTGC T80C | -0.0687 ± 0.062 | -0.0985 ± 0.41
TAAATTGATATTGC T80G | 0.183 ± 0.047 | 0.0082 ± 0.15
TAAATTGATATTGC T80A | 0.0921 ± 0.03 | 0.072 ± 0.48
TAAATTTCGCTTGC | -0.702 ± 0.069 | 2.429 ± 0.022
ATTTAACTATAACG A29C | -1.83 ± 0.43 | 1.8 ± 0.15
ATTTAACTATAACG A29T | -1.09 ± 0.32 | 2.6 ± 0.24
ATTTAACTATAACG A39C | -2.44 ± 0.36 | 0.461 ± 0.1
ATTTAACTATAACG A39T | -1.34 ± 0.21 | 1.59 ± 0.1
ATTTAACTATAACG A39G | -0.496 ± 0.057 | 2.47 ± 0.042

Variant | relative integration efficiency (log2) [1] | relative integration efficiency (log2) [2]
ATTTAACTATAACG C14G | -0.937 ± 0.17 | 1.76 ± 0.15
ATTTAACTATAACG A50C | -1.36 ± 0.36 | 2.44 ± 0.1
ATTTAACTATAACG A50G | -1.62 ± 0.3 | 2.18 ± 0.28
ATTTAACTATAACG A50T | -1.29 ± 0.33 | 2.34 ± 0.11
TAATTTGATATTGC | 0.169 ± 0.039 | 0.241 ± 0.14
TAAATTGATATTGC T12G | -0.147 ± 0.043 | -1.06 ± 0.57
TAAATTGATATTGC T12A | -0.107 ± 0.031 | -0.916 ± 0.17
TAAATTGATATTGC T12C | -0.235 ± 0.019 | -0.906 ± 0.64
ATTTAACTATAACG T31G | -1.44 ± 0.31 | 2.54 ± 0.17
ATTTAACTATAACG T31C | -0.932 ± 0.22 | 2.62 ± 0.071
ATTTAACTATAACG T31A | -1.32 ± 0.36 | 2.39 ± 0.16
ATTTAACTATAACG A47G | -0.679 ± 0.11 | 2.25 ± 0.039
ATTTAACTATAACG A47C | -0.686 ± 0.38 | 2.63 ± 0.064
ATTTAACTATAACG A47T | -1.17 ± 0.26 | 1.84 ± 0.026
ATTTAACTATAACG T28C | -1.29 ± 0.26 | 2.16 ± 0.037
ATTTAACTATAACG T28G | -1.52 ± 0.28 | 1.89 ± 0.21
TAAATTGTTATTGC | -0.347 ± 0.057 | 1.61 ± 0.16
ATTTAACTATAACG A16T | -0.779 ± 0.2 | 2.59 ± 0.066
ATTTAACTATAACG A16G | -1.04 ± 0.027 | 2.09 ± 0.17
ATTTAACTATAACG A16C | -1.24 ± 0.14 | 2 ± 0.11
ATTTAACTATAACG T51A | -1.46 ± 0.28 | 2.29 ± 0.1
ATTTAACTATAACG T51C | -1.04 ± 0.24 | 2.48 ± 0.17
ATTTAACTATAACG T51G | -1.67 ± 0.15 | 2.1 ± 0.14
TCCCGTGATATTGC | -0.648 ± 0.091 | 2.35 ± 0.13

Variant | relative integration efficiency (log2) [1] | relative integration efficiency (log2) [2]
TATATTGATATCTC C59A | -0.231 ± 0.072 | -0.123 ± 0.17
TCCATTGATATTGC | -0.657 ± 0.14 | 2.16 ± 0.029
TATATTGATATTGC | 0.155 ± 0.039 | 0.337 ± 0.47
TAAATTGATATTGT | 0.127 ± 0.093 | 0.155 ± 0.13
TAAATTGATATTGG | 0.00187 ± 0.0011 | -0.155 ± 0.042
TACCTTGATATTGC | 1.35 ± 0.074 | 3.9016 ± 0.0014
TAAATTGGTATTGC | 0.0075 ± 0.082 | 0.963 ± 0.065
TAAATTGATATTGC T32G | -1.26 ± 0.063 | 0.729 ± 0.26
TAAATTGATATTGC T32C | -0.438 ± 0.11 | -0.169 ± 0.21
TAAATTGATATTGC T32A | 0.933 ± 0.11 | 0.96 ± 0.14
TGAATTGATATTGC | -0.596 ± 0.095 | 1.91 ± 0.29
ATTTAACTATAACG C55A | -1.63 ± 0.35 | 2.34 ± 0.071
ATTTAACTATAACG C55G | -1.37 ± 0.28 | 2.381 ± 0.011
ATTTAACTATAACG C55T | -1.15 ± 0.35 | 2.56 ± 0.14
ATTTAACTATAACG T9G | -0.534 ± 0.082 | 2.39 ± 0.12
ATTTAACTATAACG T9C | -0.756 ± 0.26 | 2.493 ± 0.0031
ATTTAACTATAACG T9A | -0.86 ± 0.087 | 2.15 ± 0.18
TAAATTGATATTGC T51C | 0.0252 ± 0.18 | 0.0609 ± 0.14
TAAATTGATATTGC T51A | -0.455 ± 0.07 | -0.206 ± 0.1
TAAATTGATATTGC T51G | -0.507 ± 0.097 | -0.118 ± 0.2
TAAATTGATTTTGC | -0.0591 ± 0.014 | 0.338 ± 0.22
ATTTAACTATAACG T12G | -0.699 ± 0.2 | 1.76 ± 0.15
ATTTAACTATAACG T12A | -0.998 ± 0.097 | 2.03 ± 0.032
TAAATTGATTATGC | -0.138 ± 0.008 | 0.414 ± 0.43

Variant | relative integration efficiency (log2) [1] | relative integration efficiency (log2) [2]
TATTAAGATATTGC | -0.535 ± 0.084 | 1.66 ± 0.11
ATTTAACTATAACG A24C | -0.878 ± 0.18 | 2.28 ± 0.015
ATTTAACTATAACG A24G | -0.674 ± 0.13 | 2.25 ± 0.086
ATTTAACTATAACG A24T | -0.752 ± 0.19 | 2.39 ± 0.024
ATAATTGATATTGC | -0.135 ± 0.017 | 1.11 ± 0.1
ATTTAACTATAACG A43T | -0.99 ± 0.12 | 2.15 ± 0.11
ATTTAACTATAACG A43G | -0.724 ± 0.15 | 2.29 ± 0.09
ATTTAACTATAACG A43C | -0.798 ± 0.095 | 2.4 ± 0.038
TAAATTGCTATTGC | -0.207 ± 0.014 | 0.841 ± 0.12
ATTTAACTATAACG T32A | -1.5 ± 0.28 | 2.13 ± 0.036
ATTTAACTATAACG T32G | -1.87 ± 0.28 | 2.2 ± 0.18
ATTTAACTATAACG A49C | -1.46 ± 0.19 | 2.17 ± 0.094
ATTTAACTATAACG A49T | -1.3 ± 0.35 | 2.31 ± 0.04
TAAATTGATGTTGC | -0.0405 ± 0.033 | 0.475 ± 0.053
TAAATTGATCGGTC | -0.277 ± 0.017 | 1.42 ± 0.094
TAAATTGATATTGC T45A | -0.307 ± 0.056 | -0.351 ± 0.41
TAAATTGATATTGC T45C | -0.0459 ± 0.091 | -0.285 ± 0.21
TAAATTGATATTGC T45G | -0.479 ± 0.082 | -0.522 ± 0.1
TTAATTGATATTGC | -0.072 ± 0.011 | 0.636 ± 0.14
TAACGGTATATTGC | -0.559 ± 0.17 | 2.2 ± 0.3
